For orientation: stoichiometry N means a count of units in the complex or per binding partner.

Common to all, as to assay: cryo-EM structure; single-particle cryoEM of the icosahedral head of purified BPP-1 virions, frozen hydrated; 50 mM Tris-HCl, 250 mM NaCl, 1 mM MgCl2, pH7.5; ~3.5 Å (capsid), ~3.4 Å (averaged CP and MCP)
Assay [1] has as its target cement protein (CP) Bbp16 of bacteriophage BPP-1 (Bordetella bacteriophage BPP-1).
Assay [2] has as its target major capsid protein (MCP) Bbp17 of bacteriophage BPP-1 (Bordetella bacteriophage BPP-1).
The target is the same in assay [3]. The source holds these as a separate data set.

Read-outs that look alike come from different tables or passages of the source.

In the case of “cement protein (CP) Bbp16 of bacteriophage BPP-1 (natural protein)”, the stoichiometry N in assay [1] came to 2.

Take “major capsid protein (MCP) Bbp17 of bacteriophage BPP-1 (natural protein)”: the stoichiometry N in assay [2] was found to be 6; in assay [3] it was 5.
